Measurements from patent publication US7423021B2, “Peptidic thrombin inhibitors” (NSCI Novel Science International GmbH, priority 2003, dated 2008).
Square brackets hold non-standard residues; d marks the D form. Cha = N[C@@H](CC1CCCCC1)C(=O)O; Cit = NC(=O)NCCC[C@H](N)C(=O)O

Assays:
thrombin [1] = conditions: literature values; cited from earlier work
thrombin [2] = molecular target: thrombin (Homo sapiens, UniProt P00734); assay: in-vitro inhibition of the amidase activity of thrombin (fluorogenic substrate Tos-Gly-Pro-Arg-AMC); type: biochemical; set-up: 10 μl of human thrombin solution; conditions: peptide concentration of 1 μM
Method: The values of the inhibiting constants Ki were obtained from assays in which thrombin hydrolyzes the fluorogenic substrate Tos-Gly-Pro-Arg-(7-amino-4-methylcumarin). The assays were carried out in […] of assay buffer (0.05 M tris, 0.1 M NaCl, 0.1% PEG 8000, pH 7.6) with 10 μl of human thrombin solution (10^−5 U/μl in the assay buffer) and 140 μl of a solution of the fluorogenic substrate in an assay buffer at a concentration of 30 μM. Solutions of the test compound (10 μl) were added at various concentrations. The rates of the hydrolysis of the substrate were measured by monitoring the reactions at […] of the release of 7-amino-4-methylcumarin using AMC. The reaction reached an equilibrium state within three minutes, after thrombin, the substrate, and an inhibitor were mixed. The kinetic data of the competing inhibition (Km, Vmax, and Ki) were analyzed by means of the representation according to Hanes (A/V against A at various values of A, where A is the substrate concentration and V the reaction rate).

| Substance | Ki (thrombin [1]) [nM] | inhibition of the amidase activity of the thrombin (thrombin [2]) [%] |
| --- | --- | --- |
| H-D-Phe-Pro-Arg-H | 70 |  |
| N-acetyl-L-Trp-L-Cha-D-Pro-D-Tyr-L-Arg amide (Ac-W[Cha][dP][dY]R-NH2; SMILES CC(=O)N[C@@H](Cc1c[nH]c2ccccc12)C(=O)N[C@@H](CC1CCCCC1)C(=O)N1CCC[C@@H]1C(=O)N[C@H](Cc1ccc(O)cc1)C(=O)N[C@@H](CCCNC(=N)N)C(N)=O) [Example 9] |  | 63 |
| N-acetyl-L-Tyr-D-Pro-L-Cha-D-Pro-D-Tyr-L-Arg amide (Ac-Y[dP][Cha][dP][dY]R-NH2; SMILES CC(=O)N[C@@H](Cc1ccc(O)cc1)C(=O)N1CCC[C@@H]1C(=O)N[C@@H](CC1CCCCC1)C(=O)N1CCC[C@@H]1C(=O)N[C@H](Cc1ccc(O)cc1)C(=O)N[C@@H](CCCNC(=N)N)C(N)=O) [Example 15] |  | 44 |
| N-acetyl-L-Tyr-L-Cit-L-Cha-D-Pro-D-Tyr-L-Arg amide (Ac-Y[Cit][Cha][dP][dY]R-NH2; SMILES CC(=O)N[C@@H](Cc1ccc(O)cc1)C(=O)N[C@@H](CCCNC(N)=O)C(=O)N[C@@H](CC1CCCCC1)C(=O)N1CCC[C@@H]1C(=O)N[C@H](Cc1ccc(O)cc1)C(=O)N[C@@H](CCCNC(=N)N)C(N)=O) [Example 6] |  | 55 |
